Data taken from US20240092877A1 (DXDISCOVERY, published 2024).

T1: TcfA protein fragment amino acids 40-374 (Bordetella pertussis)
T1 construct: Not conjugated to BSA
T1 chain: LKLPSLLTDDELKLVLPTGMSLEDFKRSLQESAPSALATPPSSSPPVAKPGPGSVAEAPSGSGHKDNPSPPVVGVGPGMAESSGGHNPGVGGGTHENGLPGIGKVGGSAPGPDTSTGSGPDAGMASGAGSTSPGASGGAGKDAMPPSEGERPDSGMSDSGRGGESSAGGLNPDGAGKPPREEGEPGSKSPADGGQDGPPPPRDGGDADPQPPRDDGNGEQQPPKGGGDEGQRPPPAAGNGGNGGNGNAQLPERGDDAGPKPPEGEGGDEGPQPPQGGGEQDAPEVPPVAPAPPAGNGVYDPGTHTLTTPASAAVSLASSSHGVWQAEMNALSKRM

T2: TcfA peptide amino acids 140-160 conjugated to bovine serum albumin (Bordetella pertussis, conjugated to bovine serum albumin (BSA))
T2 construct: Protein fragment coated on ELISA plates; BSA conjugate; also called aa140-160
T2 peptide: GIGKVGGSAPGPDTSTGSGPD

T3: TcfA peptide amino acids 305-323 conjugated to bovine serum albumin (Bordetella pertussis, conjugated to bovine serum albumin (BSA))
T3 construct: Protein fragment coated on ELISA plates; BSA conjugate
T3 peptide: GGDEGPQPPQGGGEQDAPE

T4: TcfA peptide amino acids 288-304 conjugated to bovine serum albumin (Bordetella pertussis, conjugated to bovine serum albumin (BSA))
T4 construct: Protein fragment coated on ELISA plates; BSA conjugate
T4 peptide: QLPERGDDAGPKPPEGE


Key:
Test in all cases: indirect ELISA, plates coated with TcfA protein fragment
[1] = target: T1, TcfA protein fragment amino acids 40-374
[2] = target: T2, TcfA peptide amino acids 140-160 …
[3] = target: T3, TcfA peptide amino acids 305-323 …
[4] = target: T4, TcfA peptide amino acids 288-304 …

| Binder | binding result [2] | binding result [3] | binding result [4] | also measured |
| --- | --- | --- | --- | --- |
| anti-TcfA monoclonal antibody 18B2 (antibody, V domains shown) VH: QVQLQQSGAELVRPGTSVKMSCKAAGYTFTNYWIGWVKQRPGHGLEWIGDIYPGGVYTNYNENFKGKATLTADTSSSTAHMQLSSLTSEDSAIYYCVRGGKYGNFFAMDYWGQGTSVTVSS VL: DIVITQDELSNPVTSGESVSISCRSSKSLLYKDGKTYLNWFLQRPGQSPQLLIYLMSTRASGVSDRFSGSGSGTDFTLEISRVKAEDVGVYYCQQLVEYPFTFGSGTKLEIK | – | – | – | binding result [1]: binds |
| anti-TcfA monoclonal antibody 10B1 (antibody, V domains shown) VH: EVQLQQSGAELVKPGASVKLSCTASGFNIKDTYIHWVKQRPEQGLEWIGRIDPANGNTIYASKFQGKAPITAVTSSNTAYMQFSSLTSGDTAVYYCTAMDYWGQGTSVTVSS VL: not shown | binds | – | – | – |
| anti-TcfA monoclonal antibody 7E11 (antibody, V domains shown) VH: EVQLQQSGAELVKPGASVKLSCTASGFNIKDTYIHWVKQRPEQGLEWIGRIDPANGNIIYASKFQGEATITADTSSNTAYMQLSSLTSGDTAVYYCSAMDYWGQGTSVTVSS VL: not shown | binds | – | – | – |
| anti-TcfA monoclonal antibody 14G11 (antibody, V domains shown) VH: EVKLVESGGGLVQPGGSLSLSCAASGFTFTDYYMSWVRQPPGKALEWLGFIRNKANGYTTEYSASVKGRFTISRDNSQSILYLQMNALRAEDSATYYCARYRRDYYGSLNYYTMDYWGQGTSVTVSS VL: DIQMTQSPASLSASVGETVTITCRASENIYSYLAWYQQKQGKSPQLLVYNAKTLAEGVPSRFSGSGSGTQFSLKINSLQPEDFGSYYCQNHYGIPLTFGAGTKLELK | – | binds | – | – |
| anti-TcfA monoclonal antibody 3E6 (antibody, V domains shown) VH: EVKLVESGGGLVQPGGSLRLSCATSGFTFTDYYMSWVRQPPGKALEWMGFIRNKAKGYTTDYSASVKGRFTISRDDSQSILYLQMNTLRPEDSATYYCARNYDYSMDYWGQGTSVTVSS VL: DIQLTQSPASLSASVGETVTITCRASDNIHKYLAWYQQKQGKSPQRLVYNAKTLADGVPSRFNGSGSGTQYSLKINSLQPEDFGIYYCQHFWSTPLTFGAGTKLELK | binds | – | – | – |
| anti-TcfA monoclonal antibody 20F4 (antibody, V domains shown) VH: QIQLVQSGPELKKPGETVKISCKASGYTFTNYGMNWVKQAPGKGLKWMGWINTYTGEPTYADDFKGRFAFSLETSATTAYLQINNLKNEDTATYFCARAATGYFDYWGQGTTLTVSS VL: DIVMSQSPSSLAVSAGEKVTMSCKSSQSLLYSSNQKNYLAWYQQKPGQSPKLLIYWASTRESGVPDRFTGSGSGTDFTLTISSVKAEDLAVYYCQQYYNEYTFGGGTKLEIK | – | binds | – | – |
| anti-TcfA monoclonal antibody 23F8 (antibody, V domains shown) VH: EVQLVESGGGLVKPGGSRKLSCAASGFTFSDYGMHWVRQAPEKGLEWVAYISSGSRTIYYADTVKGRFTISRDNAKNTLFLQMTSLRSEDTAMYYCARLGYGYDWYFDVWGTGTTVTVSS VL: not shown | – | – | binds | – |
| anti-TcfA monoclonal antibody 14D12 (antibody, V domains shown) VH: EVMLVESGGALVKPGGSLKLSCAASGITFSNYAMSWIRQTPEKRLEWVASISSGGSYIYYSDSVKGRFTISRDNARNTLNLQMSSLRSEDTAMYYCVRGAHGNFDYWGQGTTLTVSS VL: DIVLTQSPASLAVSLGQRATISCRTSETVDYDGDSYMNWYQQKSGQPPKLLISGASNVESGVPARFSGSGSGTDFSLNIHPVEEDDITMYFCQQNRKLPYTFGSGTKLEMK | – | – | binds | – |
| anti-TcfA monoclonal antibody 13E11 (antibody, V domains shown) VH: EVQLVESGGGLVKPGGSRKLSCAASGFTFSDYGMHWVRQAPEKGLEWVAYISSGSSTIYYADTVKGRFTISRDNAKNTLFLQMTSLRSEDTAMYYCARPRSGRYFDYWGQGTTLTVSS VL: not shown | – | binds | binds | – |
